Data as given in patent publication US20210221894A1 (DRAGONFLY THERAPEUTICS, published 2021).

Columns and labels:
recombinant human DLL1 = target: T1, recombinant human DLL1 (human, UniProt O00548 18-540, limits assumed); assay: ELISA, plate-bound recombinant human DLL1 (1 µg/mL), anti-mouse IgG-HRP/TMB, % of positive control max
T1 sequence (looked up): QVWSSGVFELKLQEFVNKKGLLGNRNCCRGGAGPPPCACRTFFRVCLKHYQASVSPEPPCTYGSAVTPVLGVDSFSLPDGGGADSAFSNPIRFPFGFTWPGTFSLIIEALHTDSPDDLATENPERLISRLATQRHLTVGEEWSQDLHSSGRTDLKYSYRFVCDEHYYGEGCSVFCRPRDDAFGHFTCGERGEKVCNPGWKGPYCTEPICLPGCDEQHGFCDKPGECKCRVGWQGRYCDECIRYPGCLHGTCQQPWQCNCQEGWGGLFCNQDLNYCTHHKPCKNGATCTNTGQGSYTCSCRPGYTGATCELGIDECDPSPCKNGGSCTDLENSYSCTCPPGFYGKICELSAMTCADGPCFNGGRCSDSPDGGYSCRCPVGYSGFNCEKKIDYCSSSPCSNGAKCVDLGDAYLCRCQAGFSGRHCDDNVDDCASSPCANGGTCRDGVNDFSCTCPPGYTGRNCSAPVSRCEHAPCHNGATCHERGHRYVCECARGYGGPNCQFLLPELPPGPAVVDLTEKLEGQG
Outline: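 Binding read by anti-mouse IgG-HRP with TMB substrate against wells coated with recombinant human DLL1 (1 μg/ml) or DLL4 (0.5 μg/ml) to test cross-reactivity of anti-DLL3 antibodies. Signals normalized to the corresponding positive control antibody.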

[1] = target: T2, extracellular domain (ECD) of human DLL3 (AdipoGen Life Sciences) (human, UniProt Q9NYJ7 27-492); assay: SPR (Biacore 8K), 37 C, antibody captured on anti-mouse Fc, DLL3 ECD injected, 1:1 fit
T2 construct: Bought and further purified by size exclusion chromatography; also called hDLL3 ECD; DLL3 ECD
T2 sequence: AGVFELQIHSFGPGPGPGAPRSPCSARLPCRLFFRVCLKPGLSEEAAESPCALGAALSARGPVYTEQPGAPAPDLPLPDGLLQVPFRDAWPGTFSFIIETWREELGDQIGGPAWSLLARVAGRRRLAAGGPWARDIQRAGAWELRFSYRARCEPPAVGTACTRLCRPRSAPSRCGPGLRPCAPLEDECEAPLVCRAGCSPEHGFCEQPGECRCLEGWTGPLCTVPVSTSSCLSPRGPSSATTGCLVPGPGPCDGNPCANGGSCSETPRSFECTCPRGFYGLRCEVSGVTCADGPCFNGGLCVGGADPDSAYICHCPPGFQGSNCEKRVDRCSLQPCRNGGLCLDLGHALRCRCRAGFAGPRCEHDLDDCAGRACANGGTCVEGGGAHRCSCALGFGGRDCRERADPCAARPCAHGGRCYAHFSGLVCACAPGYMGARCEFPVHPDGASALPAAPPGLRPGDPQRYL
Source text: (§1) The binding kinetics of different anti-DLL3 antibodies to recombinant proteins of different domains of human DLL3 were studied by surface plasmon resonance (SPR) using a Biacore™ 8K instrument. These anti-DLL3 antibodies were produced from mouse hybridomas, and each included a heavy chain variable region and light chain variable region described herein. Briefly, antibodies recognizing human IgG Fc and antibodies recognizing mouse IgG Fc were immobilized on different channels of a Biacore™ 8K chip to allow simultaneous analysis of human and murine anti-DLL3 antibodies. Murine anti-DLL3 antibodies were captured on the anti-mouse Fc channel of the Biacore chip. The human anti-DLL3 antibody from Stemcentrx (San Francisco, Calif.) was used as a control and was captured onto anti-human Fc channel of the Biacore™ chip. Different concentrations of DLL3 ECD, DLL3 N-terminal domain, EGF2-6, EGF3-6, EGF4-6, or EGF5-6 domains of DLL3 were injected. Experiments were performed at 37° C. Biacore™ 8K evaluation software was used for all data analysis. To obtain kinetic rate constants double-referenced data were fit to a 1:1 interaction model using Biacore™ 8K Evaluation software (GE Healthcare, Marlborough, Mass.). The equilibrium binding constant KD was determined by the ratio of binding rate constants kd/kₐ.
Table 36 lists the calculated binding kinetics (KD). […] Stemcentrx anti-DLL3 antibody was used as a control.

[2] = target: T2, extracellular domain (ECD) of human …; assay: SPR (Biacore 8K), 37 C, antibody captured on anti-mouse Fc; same values as in Table 36; 37 C; hDLL3 ECD construct
Source text: as §1
(§2) Table 36 lists the calculated binding kinetics (KD). […]

[3] = target: T3, recombinant His-tagged N-terminal domain of human DLL3 (human, UniProt Q9NYJ7 27-175, limits assumed); assay: SPR (Biacore 8K), 37 C, antibody captured on anti-mouse Fc
T3 construct: also called DLL3 N-terminal domain
T3 sequence: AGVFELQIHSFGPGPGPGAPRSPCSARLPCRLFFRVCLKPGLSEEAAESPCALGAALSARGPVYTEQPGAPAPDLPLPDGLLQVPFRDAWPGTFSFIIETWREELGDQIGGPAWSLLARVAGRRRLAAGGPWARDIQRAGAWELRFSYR
Source text: as §1, with “kd/kₐ. […]” for “kd/kₐ.”

[4] = target: T4, recombinant His-tagged EGF5-6 domains of human DLL3 (human, UniProt Q9NYJ7 391-492, limits assumed); assay: as above
T4 sequence: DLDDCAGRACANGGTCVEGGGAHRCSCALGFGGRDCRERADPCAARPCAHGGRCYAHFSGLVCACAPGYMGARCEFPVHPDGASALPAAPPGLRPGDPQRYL
Source text: as §1, with “kd/kₐ. […]” for “kd/kₐ.”

[5] = target: T2, extracellular domain (ECD) of human …; assay: SPR (Biacore 8K), 37 C, antibody captured on anti-mouse Fc; same values as in Table 36
Source text: as §1, §2

- binding result (recombinant human DLL1): no binding
- Kd [1]: 0.203 nM
- koff [1]: 6.47e-05 s⁻¹
- kon [1]: 319000 M⁻¹ s⁻¹
- kon [2]: 319000 M⁻¹ s⁻¹
- binding result [3]: no binding
- binding result [4]: no binding
- Kd [5]: 0.203 nM
- koff [5]: 6.47e-05 s⁻¹
B1: murine anti-DLL3 antibody clone 5E7 (antibody, V domains shown)
VH: EVQLQQSGAELVRPGASVKLSCTASGFNIKDDYIHWVKQWPEQGLEWIGWIDSENGDTEYASKFQGKATMTADTSSNTAYLQLSGLTSEDTAVYYCTTSSYYSYDLFVYWGQGTLVTVSA
VL: DVLMTQTPLTLSVPIGQPASISCKSSQSLLHSNGKTYLNWLLQRPGQSPKLLIYLVSKLESGVPDRFSGSGSGTDFTLKISRVEAEDLGVYYCLQTTHLYTFGGGTKLEIK
notes: Murine antibody produced from a mouse hybridoma, captured on anti-mouse Fc in SPR; also called m5E7; murine 5E7
